Results: paper PMC12748787 (Communications Biology, 2025)

B1: Trx-CaV1.2 JBM (domain or fragment)
chain: not shown
B6: CaV1.2 JBM (as used in SEC and SEC-MALS) (domain or fragment)
chain: not shown

How the values were obtained:
[1] = biological target: T1, MBP-Mus_JPH3 NT WT (mouse, UniProt Q9ET77 1-446); experiment: ITC
T1 sequence (looked up): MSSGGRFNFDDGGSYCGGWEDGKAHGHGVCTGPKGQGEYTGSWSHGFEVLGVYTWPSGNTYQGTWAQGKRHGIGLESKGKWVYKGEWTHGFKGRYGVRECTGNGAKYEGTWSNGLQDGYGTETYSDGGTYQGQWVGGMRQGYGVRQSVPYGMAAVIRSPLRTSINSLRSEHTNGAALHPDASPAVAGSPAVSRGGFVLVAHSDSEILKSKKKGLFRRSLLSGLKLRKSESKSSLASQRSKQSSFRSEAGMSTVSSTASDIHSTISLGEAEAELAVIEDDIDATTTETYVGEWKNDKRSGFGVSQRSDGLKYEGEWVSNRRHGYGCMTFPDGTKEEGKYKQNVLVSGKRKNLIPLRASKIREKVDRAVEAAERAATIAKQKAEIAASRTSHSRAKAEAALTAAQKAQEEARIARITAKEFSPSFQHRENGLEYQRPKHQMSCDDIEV

[2] = biological target: T2, MBP-JPH2 NT (mouse, wild type) (mouse, UniProt Q9ET78 1-440); experiment: ITC
T2 sequence (looked up): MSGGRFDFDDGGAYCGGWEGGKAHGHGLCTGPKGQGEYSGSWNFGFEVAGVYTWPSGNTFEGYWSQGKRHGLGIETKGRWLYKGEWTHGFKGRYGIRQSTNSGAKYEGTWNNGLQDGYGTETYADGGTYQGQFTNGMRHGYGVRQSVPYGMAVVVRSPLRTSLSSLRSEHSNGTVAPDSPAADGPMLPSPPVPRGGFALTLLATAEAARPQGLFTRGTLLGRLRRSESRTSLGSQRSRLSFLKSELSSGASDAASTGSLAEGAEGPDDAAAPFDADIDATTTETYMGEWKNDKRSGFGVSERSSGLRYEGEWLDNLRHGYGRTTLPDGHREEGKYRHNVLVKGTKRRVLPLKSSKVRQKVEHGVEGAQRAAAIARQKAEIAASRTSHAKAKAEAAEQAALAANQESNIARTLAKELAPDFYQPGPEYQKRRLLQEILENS

[3] = biological target: T3, MBP-JPH2 MORN-Helix (mouse, UniProt Q9ET78 1-440, Δ176-273); experiment: ITC
T3 sequence (looked up): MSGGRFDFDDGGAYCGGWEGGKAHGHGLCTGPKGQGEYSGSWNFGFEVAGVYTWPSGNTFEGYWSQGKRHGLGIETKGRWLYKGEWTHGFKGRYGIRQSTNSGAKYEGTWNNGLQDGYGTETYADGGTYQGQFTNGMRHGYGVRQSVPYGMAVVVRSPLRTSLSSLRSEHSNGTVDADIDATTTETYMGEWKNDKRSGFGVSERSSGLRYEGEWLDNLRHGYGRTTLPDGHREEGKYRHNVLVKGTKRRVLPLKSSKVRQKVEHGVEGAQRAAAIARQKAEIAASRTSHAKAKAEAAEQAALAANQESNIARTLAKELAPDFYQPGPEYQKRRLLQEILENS

[4] = biological target: T4, MBP-Mus_JPH1 NT WT (mouse, UniProt Q9ET80 1-436); experiment: ITC
T4 sequence (looked up): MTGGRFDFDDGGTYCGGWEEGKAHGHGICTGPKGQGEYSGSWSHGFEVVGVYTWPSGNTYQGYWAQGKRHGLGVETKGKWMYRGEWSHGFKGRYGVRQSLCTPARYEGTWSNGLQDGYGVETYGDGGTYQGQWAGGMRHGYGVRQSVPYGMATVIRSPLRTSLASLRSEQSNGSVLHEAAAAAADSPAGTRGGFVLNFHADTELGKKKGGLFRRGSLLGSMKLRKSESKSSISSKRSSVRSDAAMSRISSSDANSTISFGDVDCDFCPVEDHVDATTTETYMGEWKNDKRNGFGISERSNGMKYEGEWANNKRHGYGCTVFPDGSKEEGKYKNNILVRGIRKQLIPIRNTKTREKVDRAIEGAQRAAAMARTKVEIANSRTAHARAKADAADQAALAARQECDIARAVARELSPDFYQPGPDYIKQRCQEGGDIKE

[5] = biological target: B1; experiment: ITC
[6] = biological target: B6; experiment: SEC-MALS
[7] = biological target: T5, JPH2 MORN-Helix (as used in SEC-MALS) (mouse, UniProt Q9ET78 1-440, Δ176-273); experiment: SEC-MALS
T5 sequence (looked up): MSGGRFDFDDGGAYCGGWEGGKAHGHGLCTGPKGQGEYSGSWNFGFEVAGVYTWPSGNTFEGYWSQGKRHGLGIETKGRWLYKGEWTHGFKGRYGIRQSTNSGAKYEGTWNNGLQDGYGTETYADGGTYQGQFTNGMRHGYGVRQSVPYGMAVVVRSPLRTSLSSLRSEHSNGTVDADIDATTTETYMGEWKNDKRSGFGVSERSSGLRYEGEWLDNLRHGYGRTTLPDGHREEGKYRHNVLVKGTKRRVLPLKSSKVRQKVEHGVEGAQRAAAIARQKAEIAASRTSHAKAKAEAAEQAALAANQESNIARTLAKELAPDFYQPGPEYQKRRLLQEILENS

Binder: B1
Kd [1]: 5.82 ± 0.36 µM
Kd [2]: ~6.04 µM
binding result [3]: binds
Kd [4]: 5.54 ± 0.71 µM

B2: JPH2 NT S165I (domain or fragment, mouse, UniProt Q9ET78 1-440, looked up)
chain: MSGGRFDFDDGGAYCGGWEGGKAHGHGLCTGPKGQGEYSGSWNFGFEVAGVYTWPSGNTFEGYWSQGKRHGLGIETKGRWLYKGEWTHGFKGRYGIRQSTNSGAKYEGTWNNGLQDGYGTETYADGGTYQGQFTNGMRHGYGVRQSVPYGMAVVVRSPLRTSLSILRSEHSNGTVAPDSPAADGPMLPSPPVPRGGFALTLLATAEAARPQGLFTRGTLLGRLRRSESRTSLGSQRSRLSFLKSELSSGASDAASTGSLAEGAEGPDDAAAPFDADIDATTTETYMGEWKNDKRSGFGVSERSSGLRYEGEWLDNLRHGYGRTTLPDGHREEGKYRHNVLVKGTKRRVLPLKSSKVRQKVEHGVEGAQRAAAIARQKAEIAASRTSHAKAKAEAAEQAALAANQESNIARTLAKELAPDFYQPGPEYQKRRLLQEILENS
fold decrease in affinity against the wild type [5]: 2 fold

B3: JPH2 NT (mouse, wild type, as used in SEC-MALS) (domain or fragment, UniProt Q9ET78 1-440, looked up)
chain: MSGGRFDFDDGGAYCGGWEGGKAHGHGLCTGPKGQGEYSGSWNFGFEVAGVYTWPSGNTFEGYWSQGKRHGLGIETKGRWLYKGEWTHGFKGRYGIRQSTNSGAKYEGTWNNGLQDGYGTETYADGGTYQGQFTNGMRHGYGVRQSVPYGMAVVVRSPLRTSLSSLRSEHSNGTVAPDSPAADGPMLPSPPVPRGGFALTLLATAEAARPQGLFTRGTLLGRLRRSESRTSLGSQRSRLSFLKSELSSGASDAASTGSLAEGAEGPDDAAAPFDADIDATTTETYMGEWKNDKRSGFGVSERSSGLRYEGEWLDNLRHGYGRTTLPDGHREEGKYRHNVLVKGTKRRVLPLKSSKVRQKVEHGVEGAQRAAAIARQKAEIAASRTSHAKAKAEAAEQAALAANQESNIARTLAKELAPDFYQPGPEYQKRRLLQEILENS
stoichiometry N [6]: 1

B4: MBP-JPH2 NT S165Y (domain or fragment, mouse, UniProt Q9ET78 1-440, looked up)
chain: MSGGRFDFDDGGAYCGGWEGGKAHGHGLCTGPKGQGEYSGSWNFGFEVAGVYTWPSGNTFEGYWSQGKRHGLGIETKGRWLYKGEWTHGFKGRYGIRQSTNSGAKYEGTWNNGLQDGYGTETYADGGTYQGQFTNGMRHGYGVRQSVPYGMAVVVRSPLRTSLSYLRSEHSNGTVAPDSPAADGPMLPSPPVPRGGFALTLLATAEAARPQGLFTRGTLLGRLRRSESRTSLGSQRSRLSFLKSELSSGASDAASTGSLAEGAEGPDDAAAPFDADIDATTTETYMGEWKNDKRSGFGVSERSSGLRYEGEWLDNLRHGYGRTTLPDGHREEGKYRHNVLVKGTKRRVLPLKSSKVRQKVEHGVEGAQRAAAIARQKAEIAASRTSHAKAKAEAAEQAALAANQESNIARTLAKELAPDFYQPGPEYQKRRLLQEILENS
fold weakening of the binding against the wild type [5]: ~3 fold

B5: JPH2 NT S165L (domain or fragment, mouse, UniProt Q9ET78 1-440, looked up)
chain: MSGGRFDFDDGGAYCGGWEGGKAHGHGLCTGPKGQGEYSGSWNFGFEVAGVYTWPSGNTFEGYWSQGKRHGLGIETKGRWLYKGEWTHGFKGRYGIRQSTNSGAKYEGTWNNGLQDGYGTETYADGGTYQGQFTNGMRHGYGVRQSVPYGMAVVVRSPLRTSLSLLRSEHSNGTVAPDSPAADGPMLPSPPVPRGGFALTLLATAEAARPQGLFTRGTLLGRLRRSESRTSLGSQRSRLSFLKSELSSGASDAASTGSLAEGAEGPDDAAAPFDADIDATTTETYMGEWKNDKRSGFGVSERSSGLRYEGEWLDNLRHGYGRTTLPDGHREEGKYRHNVLVKGTKRRVLPLKSSKVRQKVEHGVEGAQRAAAIARQKAEIAASRTSHAKAKAEAAEQAALAANQESNIARTLAKELAPDFYQPGPEYQKRRLLQEILENS
fold decrease in affinity against the wild type [5]: 2 fold

Binder: B6
binding result [7]: binds
